US20200399381A1 (I MAB BIOPHARMA US, published 2020)
Substitutions are numbered along the chain they refer to.

B1: 8G11 chimeric antibody (antibody, V domains shown)
VH: EVQLQQSGAELVKPGASVKLSCTGFGFNIKDYYMHWVKQRAEQGLEWIGRIDPEDGETKYAPKFQGKATITADTSSNTAYLQVSSLTSEDTAVYYCARGGNFYVMDYWGQGTSVTVSS
VL: DIVMTQSQKFMSTSVGDRVSVTCKASQNVGTNVVWYQQKPGQSPKVLIYSASYRVSGVPDRFTGSGSGTDFTLIISNVQSEDLAEYFCQQKNNYPYTFGGGTKLEIK
notes: also called chimeric 8G11
B2: 8G11 Fab (Fab, V domains shown)
VH: B1 VH
VL: B1 VL
B3: Anifrolumab (antibody, V domains shown)
VH: EVQLVQSGAEVKKPGESLKISCKGSGYIFTNYWIAWVRQMPGKGLESMGIIYPGDSDIRYSPSFQGQVTISADKSITTAYLQWSSLKASDTAMYYCARHDIEGFDYWGRGTLVTVSS
VL: EIVLTQSPGTLSLSPGERATLSCRASQSVSSSFFAWYQQKPGQAPRLLIYGASSRATGIPDRLSGSGSGTDFTLTITRLEPEDFAVYYCQQYDSSAITFGQGTRLEIKR

Assays:
human IFNAR-1 on cells = target: T1, human IFNAR-1 on cells (human, UniProt P17181 28-557); experiment: cell-based or functional assay
T1 sequence (looked up): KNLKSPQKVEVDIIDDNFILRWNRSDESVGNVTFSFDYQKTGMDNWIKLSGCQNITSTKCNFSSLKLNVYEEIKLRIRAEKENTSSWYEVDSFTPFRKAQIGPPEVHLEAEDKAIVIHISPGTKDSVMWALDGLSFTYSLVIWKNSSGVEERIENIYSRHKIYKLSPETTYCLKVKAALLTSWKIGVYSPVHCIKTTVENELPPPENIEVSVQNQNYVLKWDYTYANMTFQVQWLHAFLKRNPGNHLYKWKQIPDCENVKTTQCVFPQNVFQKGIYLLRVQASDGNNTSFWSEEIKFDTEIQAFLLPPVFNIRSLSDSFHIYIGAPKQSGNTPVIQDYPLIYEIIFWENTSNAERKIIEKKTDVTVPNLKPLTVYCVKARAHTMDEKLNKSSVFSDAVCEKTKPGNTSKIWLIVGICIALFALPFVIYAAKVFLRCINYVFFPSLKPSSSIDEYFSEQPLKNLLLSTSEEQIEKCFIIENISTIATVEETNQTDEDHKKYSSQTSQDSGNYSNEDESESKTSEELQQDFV

[1] = target: T2, human IFNAR-1 protein (form not stated) (human, UniProt P17181 28-436, limits assumed); experiment: ELISA on human IFNAR-1 protein
T2 construct: bispecific ELISA
T2 sequence (looked up): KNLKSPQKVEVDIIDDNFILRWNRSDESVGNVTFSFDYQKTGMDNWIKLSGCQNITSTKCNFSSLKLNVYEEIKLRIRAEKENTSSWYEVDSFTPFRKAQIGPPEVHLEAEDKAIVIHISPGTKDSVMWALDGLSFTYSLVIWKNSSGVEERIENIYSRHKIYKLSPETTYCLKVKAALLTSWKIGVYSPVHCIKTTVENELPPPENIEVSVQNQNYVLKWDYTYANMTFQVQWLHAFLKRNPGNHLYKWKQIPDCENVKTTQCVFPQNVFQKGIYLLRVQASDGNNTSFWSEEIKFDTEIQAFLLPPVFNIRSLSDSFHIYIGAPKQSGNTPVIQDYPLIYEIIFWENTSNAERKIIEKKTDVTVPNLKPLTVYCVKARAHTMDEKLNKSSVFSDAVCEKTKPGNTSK

[2] = target: T3, hIFNAR-1(1aa-409aa) K278A (human, UniProt P17181 28-436); experiment: flow cytometry on alanine scan clone, normalised to WT
T3 construct: range 1-409
T3 sequence (looked up): T2 sequence (looked up) with K251A
Source text: (§1) For each point, background fluorescence was subtracted from the raw data, which were then normalized to Fab reactivity with WT target protein. For each mutant clone, the mean binding value was plotted as a function of expression (represented by control reactivity).

[3] = target: T4, hIFNAR-1(1aa-409aa) K276A (human, UniProt P17181 28-436); experiment: as above
T4 construct: range 1-409
T4 sequence (looked up): T2 sequence (looked up) with K249A
Source text: as §1

[4] = target: T5, hIFNAR-1(1aa-409aa) H273A (human, UniProt P17181 28-436); experiment: as above
T5 construct: range 1-409
T5 sequence (looked up): T2 sequence (looked up) with H246A
Source text: as §1

[5] = target: T6, hIFNAR-1(1aa-409aa) Y275A (human, UniProt P17181 28-436); experiment: as above
T6 construct: range 1-409
T6 sequence (looked up): T2 sequence (looked up) with Y248A
Source text: as §1

[6] = target: T7, hIFNAR-1(1aa-409aa) L274A (human, UniProt P17181 28-436); experiment: as above
T7 construct: range 1-409
T7 sequence (looked up): T2 sequence (looked up) with L247A
Source text: as §1

Binder | EC50 (nM), IFNα2b-mediated anti-viral assay (Huh7-Con1b HCV replicon luciferase) (human IFNAR-1 on cells) | EC50 (read off the curve) [1] | Binding Reactivity (% WT) [2] | Binding Reactivity (% WT) [3] | Binding Reactivity (% WT) [4] | Binding Reactivity (% WT) [5] | Binding Reactivity (% WT) [6]
B1 | 7.73 nM | ~0.1 nM |  |  |  |  | 
B2 |  |  | 3.9 % WT | 1.5 % WT | 31.2 % WT | 19.1 % WT | 22.7 % WT
B3 |  |  | 105 % WT | 99.4 % WT | 88.1 % WT | 146 % WT | 106 % WT
